Measured values: PMC7062751

Experiments:
free SUMO1 = free SUMO1 (UniProt P63165); assay: pull-down (IP: TEX264-GFP) with immunoblot, quantified band ratio; conditions: purified GFP-tagged TEX264 incubated with free SUMO1; parent: 1
[1] = target: TEX264^SIM2*-FLAG (SIM2-mutated variant) (UniProt Q9Y6I9); assay: co-IP; tandem affinity purification from ΔTEX264 HEK293 co-expressing FLAG-tagged TEX264 and HA-SUMO1: FLAG IP under native conditions, then anti-HA IP after boiling in 1% SDS; eluates probed for TOP1
Sequence of UniProt Q9Y6I9 (Q9Y6I9 whole entry, stated change not applied): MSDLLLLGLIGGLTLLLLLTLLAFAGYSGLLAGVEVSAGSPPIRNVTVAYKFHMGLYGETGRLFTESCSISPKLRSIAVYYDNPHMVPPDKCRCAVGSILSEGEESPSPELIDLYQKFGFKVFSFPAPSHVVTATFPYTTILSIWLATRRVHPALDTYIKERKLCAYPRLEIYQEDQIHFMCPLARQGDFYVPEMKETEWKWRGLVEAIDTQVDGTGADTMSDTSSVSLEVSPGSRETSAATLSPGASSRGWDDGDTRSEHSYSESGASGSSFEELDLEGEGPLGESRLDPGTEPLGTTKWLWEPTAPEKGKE

Sequence of UniProt P63165 (P63165 1-97): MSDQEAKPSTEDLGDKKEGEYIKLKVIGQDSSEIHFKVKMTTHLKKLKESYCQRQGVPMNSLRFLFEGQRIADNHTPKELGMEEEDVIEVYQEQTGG

GFP-tagged TEX264, wild type (from UniProt Q9Y6I9) SIM1*
ratio to parent (free SUMO1): 0.25

GFP-tagged TEX264, wild type (from UniProt Q9Y6I9) SIM2*
ratio to parent (free SUMO1): 0

SUMO1-modified TOP1 (HA-SUMO1 conjugated to endogenous TOP1) (from UniProt P11387 1-765; P63165 1-97)
percent less co-immunoprecipitated than with TEX264^WT [1]: 70%
